In US20200240995:

How the values were obtained:
[1] = biological target: Dual luciferase reporter (DLR) with N(ε)-acetyl-lysine at K529 of the Firefly enzyme
[2] = biological target: Dual luciferase reporter (DLR) with N(ε)-tert.-butyl-oxycarbonyl-lysine at K529 of the Firefly enzyme
[3] = biological target: Dual luciferase reporter (DLR) with N(ε)-crotonyl-lysine at K529 of the Firefly enzyme
[4] = biological target: Dual luciferase reporter (DLR) with N(ε)-allyl-oxycarbonyl-lysine at K529 of the Firefly enzyme
Dual luciferase reporter (DLR) with N(ε)-allyl-oxycarbonyl-lysine at K529 of the Firefly enzyme, sequence (chain, as listed by the source): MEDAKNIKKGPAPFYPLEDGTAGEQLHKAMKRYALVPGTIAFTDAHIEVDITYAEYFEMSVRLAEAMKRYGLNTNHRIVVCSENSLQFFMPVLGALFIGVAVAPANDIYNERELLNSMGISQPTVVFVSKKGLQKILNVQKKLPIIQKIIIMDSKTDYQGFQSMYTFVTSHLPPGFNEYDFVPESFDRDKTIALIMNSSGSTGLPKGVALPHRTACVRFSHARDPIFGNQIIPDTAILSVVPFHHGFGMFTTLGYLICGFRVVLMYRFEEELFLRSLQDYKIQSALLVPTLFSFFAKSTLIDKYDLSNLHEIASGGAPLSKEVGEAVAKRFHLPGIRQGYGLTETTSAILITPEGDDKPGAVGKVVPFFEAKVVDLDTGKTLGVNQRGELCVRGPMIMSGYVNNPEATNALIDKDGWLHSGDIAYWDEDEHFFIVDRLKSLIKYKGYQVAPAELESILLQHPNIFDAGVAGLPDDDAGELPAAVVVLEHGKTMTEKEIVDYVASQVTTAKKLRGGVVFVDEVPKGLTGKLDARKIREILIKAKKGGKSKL

Dual luciferase reporter (DLR) with N(ε)-tert.-butyl-oxycarbonyl-lysine at K529 of the Firefly enzyme, sequence (chain, as listed by the source): as above
Dual luciferase reporter (DLR) with N(ε)-crotonyl-lysine at K529 of the Firefly enzyme, sequence (chain, as listed by the source): as above
Dual luciferase reporter (DLR) with N(ε)-acetyl-lysine at K529 of the Firefly enzyme, sequence (chain, as listed by the source): as above

B1: Dealocase-1 (protein)
chain: KPRVLVLTGAGISAESGIRTFRAADGLWEEHRVEDVSTPEGFDRDPELVQAFWNAWRRQLQQPEIQPNAAHLALAKLQDALGDRFLLVTQNVDNLHERAGNTNVIHMHGELLKVRCSQSGQVLDWTGDVTPEDKCHCCQFPAPLRPHVVWFGEMPLGMDEIYMALSMADIFIAIGTSGHVYPAAGFVHEAKLHGAHTVELNLEPSQVGNEFAEKYYGPASQVVPEFVEKLLKGLKAGSIA
In the case of B1, the DLR activity [rel. to wild-type] (rel. to wild-type) [1] is reported as 0.49, the DLR activity [rel. to wild-type] (rel. to wild-type) [2] is reported as 2.88 and the DLR activity [rel. to wild-type] (rel. to wild-type) [3] is reported as 5.73. It also gave a DLR activity [rel. to wild-type] (rel. to wild-type) [4] of 10.8.

B2: Dealocase-2 (protein)
chain: KPRVLVLTGAGISAESGIRTFRAADGLWEEHRVEDVGTPEGFDRDPELVQAFYNAGRRQLQQPEIQPNAAHLALAKLQDALGDRFLLVTQNVDNLHERAGNTNVIHMHGELLKVRCSQSGQVLDWTGDVTPEDKCHCCQFPAPLRPHVVWFGEMPLGMDEIYMALSMADIFIAIGTSGHVYPAAGFVHEAKLHGAHTVELNLEPSQVGNEFAEKYYGPASQVVPEFVEKLLKGLKAGSIA
For B2, the DLR activity [rel. to wild-type] (rel. to wild-type) [1] was 1.19, the DLR activity [rel. to wild-type] (rel. to wild-type) [2] was 0.77 and the DLR activity [rel. to wild-type] (rel. to wild-type) [3] was 2.11. For the same protein, the DLR activity [rel. to wild-type] (rel. to wild-type) [4] was 10.2.

B3: Dealocase-3 (protein)
chain: KPRVLVLTGAGISAESGIRTFRAADGLWEEHRVEDVATPEGFDRDPELVQAFYNARRRQLQQPEIQPNAAHLALAKLQDALGDRFLLVTQNSDNLHERAGNTNVIHMHGELLKVRCSQSGQVLDWTGDVTPEDKCHCCQFPAPLRPHLVWFGEMPLGMDEIYMALSMADIFIAIGTSGHVYPAAGFVHEAKLHGAHTVELNLEPSQVGNEFAEKYYGPASQVVPEFVEKLLKGLKAGSIA
For B3, the DLR activity [rel. to wild-type] (rel. to wild-type) [1] was 0.35, the DLR activity [rel. to wild-type] (rel. to wild-type) [2] was 0.65 and the DLR activity [rel. to wild-type] (rel. to wild-type) [3] was 1. It also gave a DLR activity [rel. to wild-type] (rel. to wild-type) [4] of 6.

B4: Debocylase-1 (protein)
chain: KPRVLVLTGAGISAESGIRTFRAADGLWEEHRVEDVATPEGFDRDPELVQAFYNARRRQLQQPEIQPNAAHLALAKLQDALGDRFLLVTQNVDNLHERAGNTNVIHMHGELLKVRCSQSGQVLDWTGDVTPEDKCHCCQFPAPLRPHLVWFGEMPLGMDEIYMALSMADIFIAIGTSGHVYPAAGFVHEAKLHGAHTVELNLEPSQVGNEFAEKYYGPASQVVPEFVEKLLKGLKAGSIA
B4 showed a DLR activity [rel. to wild-type] (rel. to wild-type) [1] of 1.25, a DLR activity [rel. to wild-type] (rel. to wild-type) [2] of 8.65 and a DLR activity [rel. to wild-type] (rel. to wild-type) [3] of 2.9. The DLR activity [rel. to wild-type] (rel. to wild-type) [4] was 8.35.

B5: Decrotonylase-1 (protein)
chain: KPRVLVLTGAGISAESGIRTFRAADGLWEEHRVEDVRTPEGFDRDPELVQAFGNATRRQLQQPEIQPNAAHLALAKLQDALGDRFLLVTQNRDNLHERAGNTNVIHMHGELLKVRCSQSGQVLDWTGDVTPEDKCHCCQFPAPLRPHLVWFGEMPLGMDEIYMALSMADIFIAIGTSGHVYPAAGFVHEAKLHGAHTVELNLEPSQVGNEFAEKYYGPASQVVPEFVEKLLKGLKAGSIA
In the case of B5, the DLR activity [rel. to wild-type] (rel. to wild-type) [1] is reported as 0, the DLR activity [rel. to wild-type] (rel. to wild-type) [2] is reported as 0.04 and the DLR activity [rel. to wild-type] (rel. to wild-type) [3] is reported as 0.1. It also gave a DLR activity [rel. to wild-type] (rel. to wild-type) [4] of 0.02.
